In paper PMC3493496, “Mechanism of Selective VEGF-A Binding by Neuropilin-1 Reveals a Basis for Specific Ligand Inhibition” (PLoS ONE, 2012):
Where “and” joins values, the source holds several entries; their conditions need not be identical. Equal entries are not always repeated. No end group written: not given here.

T1: AP-fusion of full length Sema3F (AP-Sema3F; residues 20-779) (UniProt Q13275 20-779)
T1 construct: source: CHO cells, large-scale transient transfection from pAPtag-5
T1 sequence (looked up): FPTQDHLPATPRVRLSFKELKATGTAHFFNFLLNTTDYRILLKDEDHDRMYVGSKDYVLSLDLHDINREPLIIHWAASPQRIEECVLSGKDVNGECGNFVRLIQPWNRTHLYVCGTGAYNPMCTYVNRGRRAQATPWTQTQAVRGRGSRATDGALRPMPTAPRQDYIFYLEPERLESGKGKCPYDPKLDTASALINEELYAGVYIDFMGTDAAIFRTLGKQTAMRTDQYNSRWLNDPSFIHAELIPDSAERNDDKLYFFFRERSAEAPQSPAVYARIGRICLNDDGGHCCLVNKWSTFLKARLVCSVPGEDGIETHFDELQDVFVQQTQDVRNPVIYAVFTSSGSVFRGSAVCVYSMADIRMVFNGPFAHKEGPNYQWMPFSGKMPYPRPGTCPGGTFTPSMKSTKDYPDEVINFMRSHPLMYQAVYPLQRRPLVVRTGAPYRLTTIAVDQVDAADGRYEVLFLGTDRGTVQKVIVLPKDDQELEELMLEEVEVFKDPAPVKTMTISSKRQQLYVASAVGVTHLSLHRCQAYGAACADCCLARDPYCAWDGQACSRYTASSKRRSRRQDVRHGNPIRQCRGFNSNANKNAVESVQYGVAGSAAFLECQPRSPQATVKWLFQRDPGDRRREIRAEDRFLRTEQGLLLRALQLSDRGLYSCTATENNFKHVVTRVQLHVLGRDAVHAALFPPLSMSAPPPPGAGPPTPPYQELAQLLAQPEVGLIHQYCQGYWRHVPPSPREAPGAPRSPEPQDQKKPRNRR

T2: AP-fusion of the Sema3F Ig and basic domains (AP-Sema3F-Ig-basic; residues 605-779) (UniProt Q13275 605-779)
T2 construct: semaphorin 3F (Sema3F), Ig and basic domains, residues 605-779; source: CHO cells, large-scale transient transfection from pAPtag-5
T2 sequence (looked up): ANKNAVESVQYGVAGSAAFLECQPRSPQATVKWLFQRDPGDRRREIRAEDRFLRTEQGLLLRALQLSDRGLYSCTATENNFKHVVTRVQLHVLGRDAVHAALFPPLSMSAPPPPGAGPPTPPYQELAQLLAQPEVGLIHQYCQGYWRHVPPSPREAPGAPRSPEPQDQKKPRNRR

B1: Nrp2 b1b2 domains (human neuropilin-2) (domain or fragment, UniProt O60462 276-595, looked up)
chain: QCNVPLGMESGRIANEQISASSTYSDGRWTPQQSRLHGDDNGWTPNLDSNKEYLQVDLRFLTMLTAIATQGAISRETQNGYYVKSYKLEVSTNGEDWMVYRHGKNHKVFQANNDATEVVLNKLHAPLLTRFVRIRPQTWHSGIALRLELFGCRVTDAPCSNMLGMLSGLIADSQISASSTQEYLWSPSAARLVSSRSGWFPRIPQAQPGEEWLQVDLGTPKTVKGVIIQGARGGDSITAVEARAFVRKFKVSYSLNGKDWEYIQDPRTQQPKLFEGNMHYDTPDIRRFDPIPAQYVRVYPERWSPAGIGMRLEVLGCDWT
notes: neuropilin-2 (Nrp2), human, b1b2 coagulation factor domains; Limits of the b1b2 construct are in the cited earlier work; also called soluble Nrp2; wild-type Nrp2
B2: Nrp1 b1b2 domains (human neuropilin-1) (domain or fragment, UniProt O14786 274-586, looked up)
chain: KCMEALGMESGEIHSDQITASSQYSTNWSAERSRLNYPENGWTPGEDSYREWIQVDLGLLRFVTAVGTQGAISKETKKKYYVKTYKIDVSSNGEDWITIKEGNKPVLFQGNTNPTDVVVAVFPKPLITRFVRIKPATWETGISMRFEVYGCKITDYPCSGMLGMVSGLISDSQITSSNQGDRNWMPENIRLVTSRSGWALPPAPHSYINEWLQIDLGEEKIVRGIIIQGGKHRENKVFMRKFKIGYSNNGSDWKMIMDDSKRKAKSFEGNNNYDTPELRTFPALSTRFIRIYPERATHGGLGLRMELLGCEVE
notes: neuropilin-1 (Nrp1), human, b1b2 coagulation factor domains; Limits of the b1b2 construct are in the cited earlier work; about residues 273-586 as I recall; also called soluble Nrp1; wild-type Nrp1
B3: C-furSema3F (peptide of the C-terminal basic domain of furin processed Sema3F; residues 740-779) (peptide, UniProt Q13275 740-779, looked up)
peptide: GLIHQYCQGYWRHVPPSPREAPGAPRSPEPQDQKKPRNRR
modifications: also: dimer via intermolecular disulfide (oxidized)
notes: semaphorin 3F (Sema3F), C-terminal basic domain of the furin processed form, residues 740-779; source: synthetic peptide (LifeTein, South Plainfield, NJ), oxidized and purified
B4: C-furSema3A (peptide of the C-terminal basic domain of furin processed Sema3A; residues 718-769) (peptide, UniProt Q14563 718-769, looked up)
peptide: MDEFCEQVWKRDRKQRRQRPGHTPGNSNKWKHLQENKKGRNRRTHEFERAPR
modifications: also: dimer via intermolecular disulfide (oxidized)
notes: semaphorin 3A (Sema3A), C-terminal basic domain of the furin processed form, residues 718-769; source: synthetic peptide (Neo-Peptide, Cambridge, MA), oxidized and purified

What follows are molecules tested against AP-fusion of VEGF-A164 (AP-VEGF-A) (assay: AP-fusion solid-phase plate binding assay (competition); Nrp1 b1b2 adsorbed on 96 well plates (2.5 ng/µl, low density); soluble Nrp titrated with AP-VEGF-A (155 µmole p-NPP hydrolyzed/min/L) in 20 mM Tris pH 7.5, 300 mM NaCl, 1 hr at 25°C; retained AP activity read at 405 nm; whether AP-VEGF-A was purified is not given). Conditions: not given.

IC50 [nM]	Molecule
310000	B1
1800	B2

These molecules were tested against VEGF-A165 (assay: AP-Nrp binding to VEGF-A affinity plates). Conditions: parent: est. 100; read off a plot.

percent of parent [%]	Molecule
310	AP-Nrp2 b1b2, wild-type R287E
310	AP-Nrp2 b1b2, wild-type 301-DGR-303 replaced by TN (DGR/TN)
34	AP-Nrp1 b1b2, wild-type K350Q; K351N; K352G
11	AP-Nrp1 b1b2, wild-type 299-TN-300 replaced by DGR (TN/DGR)
41	AP-Nrp1 b1b2, wild-type E285R
510	AP-Nrp2 b1b2, wild-type Q353K; N354K; G355K
38	AP-Nrp1 b1b2, wild-type E304Q; R305Q
60	AP-Nrp2 b1b2, wild-type Q307E; Q308R

What follows are molecules tested against T1, AP-fusion of full length Sema3F … (assay: AP-fusion solid-phase plate binding assay (competition); low density Nrp1 affinity plates; soluble Nrp1 or Nrp2 combined with AP-Sema3F (648 µmole p-NPP hydrolyzed/min/L) in incubation buffer (20 mM Tris pH 7.5, 300 mM NaCl), 1 h at 25°C; whether AP-Sema3F was purified is not told). Conditions: not given.

IC50 [nM]	Molecule
2700	B1
2000	B2

Biological target: AP-fusion of VEGF-A164 (AP-VEGF-A)
Experiment: AP-fusion solid-phase plate binding assay (competition); Nrp1 b1b2 adsorbed on 96 well plates (2.5 ng/µl, low density); soluble Nrp titrated with AP-VEGF-A (155 µmole p-NPP hydrolyzed/min/L) in 20 mM Tris pH 7.5, 300 mM NaCl, 1 hr at 25°C; retained AP activity read at 405 nm; whether AP-VEGF-A was purified is not given
Conditions: not given
Remark: another data set of the same source

IC50	Molecule
120000 nM and 160000 nM and 200000 nM	B1
1600 nM and 2000 nM	B2

These molecules were tested against T2, AP-fusion of the Sema3F Ig and basic … (assay: AP-fusion solid-phase plate binding assay (competition); high density Nrp1 affinity plates (50 ng/µl); soluble Nrp1 or Nrp2 combined with AP-Sema3F-Ig-basic (181 µmole p-NPP hydrolyzed/min/L) in binding buffer (20 mM Tris pH 7.5, 50 mM NaCl), 1 hr at 25°C; whether the AP fusion was purified is not told). Conditions: not given.

IC50 [nM]	Molecule
6200	B1
1200	B2

These molecules were tested against B2 (assay: AP-fusion solid-phase plate binding assay (competition); C-furSema peptides titrated with AP-VEGF-A (100 µmole p-NPP hydrolyzed/min/L) in incubation buffer on low density Nrp1 affinity plates, 1 h at 25°C; pair: peptide and adsorbed Nrp1). Conditions: both partners purified.

IC50 [nM]	Molecule
22	B3
67	B4
